Experimental data taken from patent US20260055369A1, “METHOD FOR GENERATING CELLS OF THE T CELL LINEAGE WITH ENGINEERING BROADLY REACTIVE HUMAN NOTCH LIGAND” (H. Lee Moffitt Cancer Center and Research Institute, Inc., priority 2022, published 2026).

Legend:
Notch2 = molecular target: T1, Notch2 (Homo sapiens, UniProt Q04721); experiment: Immunoblot of cleaved Notch2 in CD8+ T cells; type: cell-based; conditions: CD8+ T cells after 96 hours with K32 cells
T1 construct: endogenous in cells; host or cells: primary human CD8+ T cells from PBMC
Excerpt: (§1) For detection of Notch activation in CD8^+ T cells, following co-culture with K32 cell lines, CD8^+ T cells were positively enriched by Magnisort Human CD8^+ T cell positive selection Kit (Invitrogen). Nuclear fraction was isolated using NE-PER Nuclear and Cytoplasmic extraction kit (ThermoFisher). Equal protein amounts of nuclear cell lysates were run on 4-20% gradient Tris-glycine gels (Novex-Invitrogen), transferred to PVDF membranes using an iBlot Gel Transfer Device (ThermoFisher), and immunoblotted with antibodies anti-cleaved Notch1 (Val1744 rabbit mAb, Cell Signaling Technology, 1:1,000), anti-Notch2 (D76A6 rabbit mAb, Cell Signaling Technology, 1:1,000), and anti-β Actin (mouse mAb, Sigma, 1:20,000). Secondary antibodies anti-IgG (anti-rabbit or anti-mouse, GE Healthcare, 1:5,000) conjugated to horseradish peroxidase (HRP) were used for detection of proteins using ECL Western Blot Substrate Reagent (Thermo Fisher Scientific). Images were acquired using a Chemidoc Imaging System and analyzed with Image-Lab software (Bio-Rad).

[1] = tested on: full-length, cell surface-expressed Notch1; experiment: Tetramer binding to Notch1 overexpressing CHO-K1 N1-Gal4 cells by flow cytometry; conditions: tetramers
Excerpt: Extended Data FIG. 5. Quantitation of mNotch1 binding to DLL4 variants, ligand adsorption, and Notch surface expression. a, SPR binding isotherms were fitted to a 1:1 binding model to determine the binding affinity between mNotch1 (6-13) and each DLL4 variant. b, Determination of plate adsorption for WT DLL4 and Delta^MAX by ELISA. Data represent mean values±s.d. of three biological replicates. c, Binding assay of WT DLL4 and Delta^MAX tetramers to Notch1 overexpressing CHO-K1 N1-Gal4 cells was measured by flow cytometry. Data represent mean values±s.d. of three biological replicates. d, The level of Notch1 expression on the surface of cell lines used in this study was determined by flow cytometry. Data represent mean values±s.d. of three biological replicates. e, Percentage of CD8^+ T cells expressing Notch1 (upper graph) and Notch2 (bottom graph) on cell surface determined by flow cytometry after stimulation with K32-WT DLL4, K32-Delta^MAX, or K32 for 96 hours. Data represent mean values±s.e.m. of three biological replicates. Delta^MAX statistics are referred to WT DLL4. *P<0.05, ****P<0.0001 (Two-way ANOVA).

hNotch1 = experiment: Notch signaling assay using multiple ligand-presentation formats (U2OS hNotch1-Gal4 luciferase); type: cell-based, human
Experimental: Notch activation was assayed in different formats (FIG. 14A) including (1) non-specific orientation (0.1 ng/mm^2 of Delta^MAX on well, FIG. 3A), (2) ligand-oriented coupling (10 nM of Delta^MAX on well, FIG. 3B), (3) magnetic beads coated with biotinylated Delta^MAX (ratio 1:20 reporter cells:beads, optimization of ratio is detailed in FIG. 14D), (4) HEK293T-expressing Delta^MAX (ratio 1:1, signal receivers:senders, optimization of ratio can be seen in FIG. 14C), and (5) yeast-expressing Delta^MAX (ratio 1:10, reporter:yeast, optimization of ratio is detailed in FIG. 14B). On day one, U2OS hNotch1-Gal4 cells were detached with trypsin-EDTA, counted in the microscope, and 5×10E5 cells/well transferred to 6-well tissue culture plates (Falcon). On day two, U2OS cells were transfected as described above. On day three, the different activation assays were set up at the same time. For ligand oriented-coupling, streptavidin plates were coated with 10 nM of Delta^MAX as described above. For non-specific adsorption, non-biotinylated Delta^MAX at 0.1 ng/mm was coated as described previously. For activation using streptavidin beads coated with biotinylated Delta^MAX, 200 mg of streptavidin beads (streptavidin MagneSphere paramagnetic particles, Promega) were washed 3 times with 200 μL of DPBS+0.1% BSA using a magnet (Miltenyi), and combined with 20 μg of biotinylated Delta^MAX for 1.5 hours at 4° C. Next, unbound Delta^MAX was washed out three times with 200 μL of DPBS+0.1% BSA, and 100 μL of complexed beads (pre-diluted 1/25 in DPBS) were added to wells. For co-culture activation with HEK293T-expressing Delta^MAX, cells were detached with trypsin-EDTA, quenched with DMEM media, washed with DPBS, and 100 μL containing 20,000 cells in DMEM were added to wells. For activation with yeast cells expressing Delta^MAX on surface, pYAL vector encoding for Delta^MAX (N-EGF5) was electroporated previously into yeast cells, and DLL4 expressed in SGCAA as previously described. Delta^MAX expression was induced 48 hours before Notch activation assay set up. One hundred microliters of yeast cells (2×10E6 cells/mL) in serum-free DMEM were added to the assay plate. Once all the wells contained the desired activation assays, U2OS reporter cells were detached with trypsin-EDTA, and 20,000 cells in 100 μL of DMEM were added per well. All the conditions were supplemented with 2 μg/mL of doxycycline to induce Notch1-Gal4 expression. The assay plate was incubated for 24 hours at 37° C. and 5% CO2. On day four, media was aspirated off and Luciferase Dual-Glo kit (Promega) used to detect firefly and Renilla signals in a luminometer (GloMax, Promega). Negative controls were BSA 0.5% for non-specific adsorption, streptavidin and BSA 2% for ligand oriented-coupling, uncoated streptavidin beads for activation with magnetic beads, HEK293T non-expressing DLL4 for co-culture activation, and yeast expressing PDL-1 ECD for co-culture with yeast. The expression of Delta^MAX in HEK293T and yeast cells was confirmed by flow cytometry (BD Accuri C6 plus) following staining for 1 hour at 4° C. with anti-hDLL4 PE antibody using DPBS+0.5% BSA, and selection buffer, respectively (FIG. 14E). Notch activation is represented as the mean fold-change over the corresponding control±s.d. of three independent biological replicates.

Notch1 = molecular target: T2, Notch1 (Homo sapiens, UniProt P46531); experiment: Immunoblot of cleaved Notch1 in CD8+ T cells; type: cell-based; conditions: CD8+ T cells after 96 hours with K32 cells
T2 construct: endogenous in cells; host or cells: primary human CD8+ T cells from PBMC
Excerpt: as §1

Sequence of hNotch1 (P46531 19-1664 limits assumed): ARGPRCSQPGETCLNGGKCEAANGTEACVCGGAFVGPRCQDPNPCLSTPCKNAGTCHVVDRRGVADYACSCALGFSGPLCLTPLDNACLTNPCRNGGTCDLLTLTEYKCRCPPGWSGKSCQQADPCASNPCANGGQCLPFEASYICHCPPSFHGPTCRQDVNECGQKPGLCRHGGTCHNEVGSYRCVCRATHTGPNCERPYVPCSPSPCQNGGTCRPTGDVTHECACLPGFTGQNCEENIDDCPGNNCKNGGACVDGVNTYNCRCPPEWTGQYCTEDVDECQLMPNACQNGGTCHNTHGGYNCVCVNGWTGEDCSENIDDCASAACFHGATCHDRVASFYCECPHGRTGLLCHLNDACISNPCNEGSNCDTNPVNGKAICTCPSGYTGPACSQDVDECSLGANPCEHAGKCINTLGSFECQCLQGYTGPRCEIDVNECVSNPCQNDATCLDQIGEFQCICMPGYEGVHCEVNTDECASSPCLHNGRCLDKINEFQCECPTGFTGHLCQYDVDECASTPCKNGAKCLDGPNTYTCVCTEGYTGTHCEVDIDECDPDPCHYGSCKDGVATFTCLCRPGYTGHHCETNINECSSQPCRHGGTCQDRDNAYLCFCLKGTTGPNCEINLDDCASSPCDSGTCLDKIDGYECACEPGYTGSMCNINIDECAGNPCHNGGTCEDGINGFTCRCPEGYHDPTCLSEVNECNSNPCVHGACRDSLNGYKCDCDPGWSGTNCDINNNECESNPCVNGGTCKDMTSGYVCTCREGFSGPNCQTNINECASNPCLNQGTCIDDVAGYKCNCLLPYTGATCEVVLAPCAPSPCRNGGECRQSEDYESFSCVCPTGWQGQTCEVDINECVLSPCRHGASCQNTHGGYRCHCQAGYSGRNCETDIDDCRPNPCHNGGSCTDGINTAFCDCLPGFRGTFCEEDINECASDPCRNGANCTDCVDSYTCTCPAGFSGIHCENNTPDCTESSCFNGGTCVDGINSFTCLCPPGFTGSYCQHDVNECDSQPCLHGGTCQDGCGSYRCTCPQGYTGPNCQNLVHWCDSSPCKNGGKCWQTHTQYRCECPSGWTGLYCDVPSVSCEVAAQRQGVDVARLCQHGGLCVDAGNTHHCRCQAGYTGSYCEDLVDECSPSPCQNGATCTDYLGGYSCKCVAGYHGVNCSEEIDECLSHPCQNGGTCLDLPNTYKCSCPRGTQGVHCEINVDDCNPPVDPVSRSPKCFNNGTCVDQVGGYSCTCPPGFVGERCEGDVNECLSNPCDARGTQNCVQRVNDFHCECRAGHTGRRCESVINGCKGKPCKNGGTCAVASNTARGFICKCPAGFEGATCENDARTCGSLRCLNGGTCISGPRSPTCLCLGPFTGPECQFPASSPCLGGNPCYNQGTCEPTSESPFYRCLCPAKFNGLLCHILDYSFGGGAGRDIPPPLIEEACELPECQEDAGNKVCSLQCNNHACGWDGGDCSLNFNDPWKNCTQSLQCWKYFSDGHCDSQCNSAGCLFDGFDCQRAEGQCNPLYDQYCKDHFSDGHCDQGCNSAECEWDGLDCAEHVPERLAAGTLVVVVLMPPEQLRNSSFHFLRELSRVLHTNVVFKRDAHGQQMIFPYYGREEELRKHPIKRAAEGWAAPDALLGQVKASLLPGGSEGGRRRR
Sequence of hNotch1 (P46531 1665-1756 limits assumed): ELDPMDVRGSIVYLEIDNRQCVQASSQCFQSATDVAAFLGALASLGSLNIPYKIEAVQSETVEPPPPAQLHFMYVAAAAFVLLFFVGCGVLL
T2 sequence (P46531 19-2555): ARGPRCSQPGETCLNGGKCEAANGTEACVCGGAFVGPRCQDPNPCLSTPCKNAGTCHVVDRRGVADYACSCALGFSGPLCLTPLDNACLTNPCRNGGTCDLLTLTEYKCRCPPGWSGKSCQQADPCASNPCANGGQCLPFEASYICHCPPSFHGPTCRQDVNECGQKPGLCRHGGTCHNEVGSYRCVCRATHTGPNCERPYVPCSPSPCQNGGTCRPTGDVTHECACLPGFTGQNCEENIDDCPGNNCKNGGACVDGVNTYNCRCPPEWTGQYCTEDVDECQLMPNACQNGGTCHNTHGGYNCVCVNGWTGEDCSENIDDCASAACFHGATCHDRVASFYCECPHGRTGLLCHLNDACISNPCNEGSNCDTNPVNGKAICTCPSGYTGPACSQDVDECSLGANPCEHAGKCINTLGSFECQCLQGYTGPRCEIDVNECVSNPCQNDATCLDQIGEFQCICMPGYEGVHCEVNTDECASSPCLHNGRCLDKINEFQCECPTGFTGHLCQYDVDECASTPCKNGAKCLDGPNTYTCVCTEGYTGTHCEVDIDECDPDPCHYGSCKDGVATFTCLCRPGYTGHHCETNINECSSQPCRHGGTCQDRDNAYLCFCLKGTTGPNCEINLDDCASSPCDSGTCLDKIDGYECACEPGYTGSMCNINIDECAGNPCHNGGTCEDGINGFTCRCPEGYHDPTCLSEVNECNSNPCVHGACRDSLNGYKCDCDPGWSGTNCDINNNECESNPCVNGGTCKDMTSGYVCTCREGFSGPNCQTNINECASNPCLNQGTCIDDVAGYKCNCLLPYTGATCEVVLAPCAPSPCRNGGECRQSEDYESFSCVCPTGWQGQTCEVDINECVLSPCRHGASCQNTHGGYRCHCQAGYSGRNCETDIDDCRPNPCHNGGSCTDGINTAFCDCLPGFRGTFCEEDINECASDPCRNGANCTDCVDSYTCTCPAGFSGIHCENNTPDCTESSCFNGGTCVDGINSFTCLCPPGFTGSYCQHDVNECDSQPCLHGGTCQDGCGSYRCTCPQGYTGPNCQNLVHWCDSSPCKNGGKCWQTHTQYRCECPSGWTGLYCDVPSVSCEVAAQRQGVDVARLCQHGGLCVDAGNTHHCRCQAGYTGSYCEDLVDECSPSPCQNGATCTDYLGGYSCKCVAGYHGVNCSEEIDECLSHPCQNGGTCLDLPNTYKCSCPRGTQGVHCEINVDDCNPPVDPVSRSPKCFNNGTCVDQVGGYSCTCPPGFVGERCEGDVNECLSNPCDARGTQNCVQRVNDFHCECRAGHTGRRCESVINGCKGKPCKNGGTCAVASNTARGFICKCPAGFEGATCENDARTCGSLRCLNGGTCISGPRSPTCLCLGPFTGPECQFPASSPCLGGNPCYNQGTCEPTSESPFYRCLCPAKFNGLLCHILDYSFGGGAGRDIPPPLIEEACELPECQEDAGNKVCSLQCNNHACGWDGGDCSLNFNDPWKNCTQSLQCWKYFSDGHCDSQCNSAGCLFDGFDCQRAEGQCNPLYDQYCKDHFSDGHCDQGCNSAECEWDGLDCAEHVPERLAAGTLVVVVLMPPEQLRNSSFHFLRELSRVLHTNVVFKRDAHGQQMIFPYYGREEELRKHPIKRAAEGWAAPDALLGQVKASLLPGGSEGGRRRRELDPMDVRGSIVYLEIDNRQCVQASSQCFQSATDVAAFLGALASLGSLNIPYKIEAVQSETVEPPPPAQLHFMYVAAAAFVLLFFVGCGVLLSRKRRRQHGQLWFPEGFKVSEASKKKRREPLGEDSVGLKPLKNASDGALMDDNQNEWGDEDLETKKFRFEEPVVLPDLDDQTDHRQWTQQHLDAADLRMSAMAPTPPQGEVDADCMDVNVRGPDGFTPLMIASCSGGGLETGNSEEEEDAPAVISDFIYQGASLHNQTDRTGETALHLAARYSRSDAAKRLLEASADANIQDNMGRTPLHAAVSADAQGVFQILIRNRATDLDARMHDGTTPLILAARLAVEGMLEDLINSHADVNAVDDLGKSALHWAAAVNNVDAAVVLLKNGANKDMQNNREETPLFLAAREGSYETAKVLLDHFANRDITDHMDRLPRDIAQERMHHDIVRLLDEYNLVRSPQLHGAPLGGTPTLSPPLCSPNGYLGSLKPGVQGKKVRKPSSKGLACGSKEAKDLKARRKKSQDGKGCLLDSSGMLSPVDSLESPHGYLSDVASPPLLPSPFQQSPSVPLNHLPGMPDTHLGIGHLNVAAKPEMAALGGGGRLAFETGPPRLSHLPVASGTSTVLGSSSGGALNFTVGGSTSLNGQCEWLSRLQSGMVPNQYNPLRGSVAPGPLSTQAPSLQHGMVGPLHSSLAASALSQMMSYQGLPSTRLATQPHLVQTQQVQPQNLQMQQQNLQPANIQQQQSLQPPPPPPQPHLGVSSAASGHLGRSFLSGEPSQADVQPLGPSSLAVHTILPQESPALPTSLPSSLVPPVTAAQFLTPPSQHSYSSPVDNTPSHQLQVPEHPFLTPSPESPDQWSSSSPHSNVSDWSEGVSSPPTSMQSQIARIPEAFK
Sequence of full-length, cell surface-expressed Notch1 (P46531 19-1664 limits assumed): as the sequence (P46531 19-1664 limits assumed) above
Sequence of full-length, cell surface-expressed Notch1 (P46531 1665-1756 limits assumed): as the sequence (P46531 1665-1756 limits assumed) above

B1: Delta^MAX: engineered human DLL4 consensus variant with 10 mutations combining DLL4.v1 and DLL4.v2 mutations; sequence matches SEQ ID NO: 4/10 (protein)
chain: SSVFQLQLQEFINERGVLASGRPCEPGCRTFFRVCLKHFQAVVSPGPCTFGTVSTPVLGTNSFAVRDDSSGGGRNPLQLPLNFTWPGTFSLIIEAWHAPGDDLRPEALPPDALISKFAIQGSLAVGQNWLLDEQTSTLTRLRYSYRVICSDNYYGDNCSRLCKKRNDYFGHYVCQPDGNPSCLPGWTGEYCQQPICLSGCHEQNGYCSKPAECLCRPGWQGRLCNECIPHPGCRHGTCSTPWQCLCDEGWGGLYCDQDLNYCTHHSPCKNGATCRNSGPRSYTCTCRPGYTGVDCELELSECDSNPCRNGGSCKDQEDGYHCLCPPGYYGLHCEHSTLSCADSPCFNGGSCRERNQGANYACECPPNFTGSNCE
Notch2 activation (cleaved ICD) relative to WT DLL4 (Notch2): increased | increase of mean fluorescence intensity (MFI) of binding compared to WT DLL4 [1]: 4.7 fold | increase in Notch1 activation relative to controls (hNotch1; co-culture with HEK293T expressing ligand, ratio 1:1): 15 fold | increase in Notch1 activation relative to controls (hNotch1; ligand-coated streptavidin magnetic beads, ratio 1:20 reporter cells:beads): 21 fold | increase in Notch1 activation relative to controls (hNotch1; non-specific adsorption, 0.1 ng/mm^2): 23 fold | increase in Notch1 activation relative to controls (hNotch1; oriented coupling on streptavidin plates, 10 nM): 50 fold | Notch1 activation relative to controls (hNotch1; yeast-displayed, ratio 1:10 reporter:yeast): did not induce a significant change | Notch1 activation (cleaved ICD) relative to WT DLL4 (Notch1): increased
